IntAct's records for PubMed 24525235

Assays:
twst1_human TWIST1 [1] = target: twst1_human TWIST1 (UniProt Q15672)
twst1_human TWIST1 [2] = target: twst1_human TWIST1 (UniProt Q15672); remark: listed apart in the source

effect of a mutation on the interaction (twst1_human TWIST1 [1]) | effect of a mutation on the interaction (twst1_human TWIST1 [2]) | Substance
decreasing interaction strength | – | Bromodomain-containing protein 4 (Homo sapiens) (from UniProt O60885-1) H437D
– | increasing interaction strength | Bromodomain-containing protein 4 (Homo sapiens) (from UniProt O60885-1) D144H
